Here are results for 10 molecules from patent US20260053882A1 (TRUSTEES OF PRINCETON UNIVERSITY, published 2026).

To fix the notation:
B3: SpyTag003-AF594 (His6-SpyTag003-SUMO-Cys Alexa Fluor 594 conjugate) (other)
chain: MGSSHHHHHHSSGLVPRGSRGVPHIVMVDAYKRYKGSGESGMSDSEVNQEAKPEVKPEVKPETHINLKVSDGSSEIFFKIKKTTPLRRLMEAFAKRQGKEMDSLRFLYDGIRIQADQTPEDLDMEDNDIIEAHREQIGC
modifications: Alexa Fluor 594 C5 maleimide on the C-terminal Cys
notes: the SUMO is internal (His6-SpyTag003-SUMO-Cys) and is not cut off; also called fluorescently labeled probe
B7: reconstituted SpyCatcher003 spliced from SpyN-αHER2 and SpyC-αEGFR (FLAG-αHER2-SpyCatcher003-αEGFR-Myc, NrdJ-1 splice product) (other)
chain: DYKDDDDKDLGKKLLEAARAGQDDEVRILMANGADVNAKDEYGLTPLYLATAHGHLEIVEVLLKNGADVNAVDAIGFTPLHLAAFIGHLEIAEVLLKHGADVNAQDKFGKTAFDISIGNGNEDLAEILQKLNGSTSGSVTTLSGLSGEQGPSGDMTTEEDSATHIKFSKRDEDGRELAGATMELRDSSGKTISTWISDGHVKDFYLYPGKYSFVETAAPDGYEVATPIEFTVNEDGQVTVDGEATEGDAHTGSTSGSDLGKKLLEAARAGQDDEVRILMANGADVNADDTWGWTPLHLAAYQGHLEIVEVLLKNGADVNAYDYIGWTPLHLAADGHLEIVEVLLKNGADVNASDYIGDTPLHLAAHNGHLEIVEVLLKHGADVNAQDKFGKTAFDISIDNGNEDLAEILQKLNEQKLISEEDL
notes: On cells it is held by its two DARPins on HER2 and EGFR; also called reconstituted SpyCather003; spliced SpyCatcher003

For test [1], the target named is B3. As to the kind of experiment: confocal microscopy, K562 HER2+/EGFR+ cells; splicing-dead SpyN-αHER2 together with SpyC-αEGFR.
Test [2] deals with B7. As to the kind of experiment: western blot of K562 HER2+/EGFR+ cells treated with SMART-SpyCatcher and 300 nM SpyTag003-APEX2.
Description: To the sample was added the specified SMART-SpyCatcher at the specified concentration by adding each individual component (SpyN and SpyC) from stock solutions. The sample was incubated for 2 hr, 37° C., 5% CO₂ to allow for actuation. The sample was then cooled at room temperature for 10 min before adding the specified SpyTag003 conjugate at 100 nM. […] The cells were then washed twice with cold DPBS, 1% w/v BSA, 2 mM CaCl₂) and incubated on ice until further analysis by confocal microscopy or flow-cytometry. Samples subjected to SDS-PAGE/western blotting were washed twice with DPBS alone to remove excess BSA. […] Adherent cell lines: The various adherent cell lines were cultured individually. Plated cells were lifted using trypsin, washed with complete medium and counted to estimate the cell concentration. Then 200,000 cells were seeded in a 24 well plate format and allowed 24 hr recovery and attachment in complete media. The assay protocol for SMART-SpyCatcher actuation and SpyTag003 recruitment follows that outlined above for the suspension cell lines. Post-treatment, the adherent cells were washed twice with DPBS, 1% w/v BSA, 2 mM CaCl₂) and then lifted with a non-enzymatic solution of DPBS, 1% w/v BSA, 50 mM EDTA and incubated on ice before analysis by flow-cytometry. For SDS-PAGE/western blotting cells were lifted as described and then washed with DPBS alone to remove excess BSA. […]
Test [3] concerns the target B7. As to the kind of experiment: confocal microscopy, K562 HER2+/EGFR+ cells treated with SpyN-αHER2 and SpyC-αEGFR (eNrdJ-1^cage), 100 nM probe.
Description: Confocal microscopy of K562 cell lines treated with SMART-SpyCatcher for [HER2 AND EGFR] operation. K562^{HER2+/EGFR+} cell line were assayed for SMART-SpyCatcher activation and analyzed by confocal microscopy.
(§1) Suspension cell lines: The K562 cell lines were cultured were individually. For an experiment, the culture of interest was spun down and counted to estimate the cell concentration. Then approximately 200,000 cells were isolated, washed twice with DPBS, 1% w/v BSA, 2 mM CaCl₂) and suspended in 0.4 mL of the buffer. To the sample was added the specified SMART-SpyCatcher at the specified concentration by adding each individual component (SpyN and SpyC) from stock solutions. The sample was incubated for 2 hr, 37° C., 5% CO₂ to allow for actuation. The sample was then cooled at room temperature for 10 min before adding the specified SpyTag003 conjugate at 100 nM. […] The cells were then washed twice with cold DPBS, 1% w/v BSA, 2 mM CaCl₂) and incubated on ice until further analysis by confocal microscopy or flow-cytometry. Samples subjected to SDS-PAGE/western blotting were washed twice with DPBS alone to remove excess BSA.
Test [4] deals with B7. Briefly: western blot of K562 HER2+/EGFR+ cells treated with SMART-SpyCatcher.
Description: (§2) Samples were run on an SDS-PAGE gel. […] The membrane was washed 3×5 min with TBS-T and incubated with primary antibodies at specified dilution (Table 4) on an orbital shaker for 1 hr at room temperature or alternatively overnight at 4° C. After washing 3×5 min with TBS-T, the IRDye secondary antibody or alternatively IRDye Streptavidin were applied for 30 min to 1 hour at room temperature, before imaging on a Li-Cor Odyssey imager (Li-Cor).
as §1
For test [5], the target named is B7. Briefly: confocal microscopy, K562 HER2+/EGFR+ cells treated with SMART-SpyCatcher, 100 nM SpyTag003-DNP.
Description: The anti-DNP antibody was detected using a goat anti-rabbit IgG AF594 conjugate.
Suspension cell lines: The K562 cell lines were cultured were individually. For an experiment, the culture of interest was spun down and counted to estimate the cell concentration. Then approximately 200,000 cells were isolated, washed twice with DPBS, 1% w/v BSA, 2 mM CaCl₂) and suspended in 0.4 mL of the buffer. To the sample was added the specified SMART-SpyCatcher at the specified concentration by adding each individual component (SpyN and SpyC) from stock solutions. The sample was incubated for 2 hr, 37° C., 5% CO₂ to allow for actuation. The sample was then cooled at room temperature for 10 min before adding the specified SpyTag003 conjugate at 100 nM. […] The cells were then washed twice with cold DPBS, 1% w/v BSA, 2 mM CaCl₂) and incubated on ice until further analysis by confocal microscopy or flow-cytometry.
For test [6], the target named is B7. Briefly: labeled mutant probe on K562 HER2+/EGFR+ cells treated with SMART-SpyCatcher, washed, AF594 signal.
In test [7] the target is B3. As to the kind of experiment: in vitro splicing of the C76V FKBP/FRB precursors with rapamycin, reaction with 2 µM SpyTag003-AF594, western blot.
Description: as §2
Splicing was initiated either by addition of 8 μL, 50 µM rapamycin (DMSO) or 1 μL, 40×TEV protease. Buffered solution was added to compensate for volume differences when reaction components were omitted in control reactions. The reaction was left for 24 hr at 37° C. before further analysis by SDS-PAGE followed by western blotting.
Test [8] concerns the target B3. As to the kind of experiment: flow cytometry, K562 HER2+/EGFR+ cells, SpyN-αHER2(K31E) + SpyC-αEGFR.
The target in test [9] is T1, HER2, endogenous on human cell lines (human, UniProt P04626 23-1255).
T1 construct: whole, on cells
Briefly: flow cytometry, 100 nM DARPin-AF594 on human cancer cell lines.

The target in test [10] is T2, Epithelial Cell Adhesion Molecule (EpCAM), endogenous on human cell lines (human, UniProt P16422 24-314).
T2 construct: whole, on cells
T2 sequence (looked up): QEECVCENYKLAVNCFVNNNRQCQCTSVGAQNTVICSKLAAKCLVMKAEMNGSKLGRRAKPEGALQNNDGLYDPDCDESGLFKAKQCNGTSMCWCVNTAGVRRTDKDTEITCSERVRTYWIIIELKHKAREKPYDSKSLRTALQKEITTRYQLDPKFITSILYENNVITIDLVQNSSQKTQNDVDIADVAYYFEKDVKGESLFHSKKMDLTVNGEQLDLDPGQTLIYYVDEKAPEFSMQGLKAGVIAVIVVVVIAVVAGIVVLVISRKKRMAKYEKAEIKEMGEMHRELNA
The test is described as above.

B1: αHER2-SpyN-eNrdJ-1N^cage Cys1-alkylated (other)
chain: DYKDDDDKDLGKKLLEAARAGQDDEVRILMANGADVNAKDEYGLTPLYLATAHGHLEIVEVLLKNGADVNAVDAIGFTPLHLAAFIGHLEIAEVLLKHGADVNAQDKFGKTAFDISIGNGNEDLAEILQKLNGSTSGSVTTLSGLSGEQGPSGDMTTEEDSATHIKFSKRDEDGRELAGATMELRDSSGKTISTWISDGHVKDFYLYPGKYCLVGSSEIITRNYGKTTIKEVVEIFDNDKNIQVLAFNTHTDNIEWAPIKAAQLTRPNAELVELEIDTLHGVKTIRVTPDHPVYTKNRGYVRADELTDDDELVVAIENLYGDEVNGYFQGMEAETYIGKLKSRAIVSNEDTYDIQTSTHNFFAND
modifications: Cys1 of eNrdJ-1N^cage alkylated with iodoacetamide (residue 331 of the printed SEQ ID NO 26)
notes: His6-SUMO tag cut off with Ulp1; range derived by counting; also called SpyN-αHER2 with Cys1-alkylated NrdJ-1N^cage
For B1, the binding result in test [1] is “no binding (tested: 100 nM)”.

B2: SpyTag003-APEX2 (His6-SpyTag003-HA-APEX2) (other)
chain: MGSSHHHHHHSSGLVPRGSRGVPHIVMVDAYKRYKGSGESGYPYDVPDYASSGGKSYPTVSADYQDAVEKAKKKLRGFIAEKRCAPLMLRLAFHSAGTFDKGTKTGGPFGTIKHPAELAHSANNGLDIAVRLLEPLKAEFPILSYADFYQLAGVVAVEVTGGPKVPFHPGREDKPEPPPEGRLPDPTKGSDHLRDVFGKAMGLTDQDIVALSGGHTIGAAHKERSGFEGPWTSNPLIFDNSYFTELLSGEKEGLLQLPSDKALLSDPVFRPLVDKYAADEDAFFADYAEAHQKLSELGFADA
notes: Not SUMO-tagged
As for B2, the binding result in [2] is “binds”.
In the case of B3, the binding result in [3] was “binds”.

B4: SpyTag003-biotin (His6-SpyTag003-SUMO-Cys biotin conjugate) (other)
chain: MGSSHHHHHHSSGLVPRGSRGVPHIVMVDAYKRYKGSGESGMSDSEVNQEAKPEVKPEVKPETHINLKVSDGSSEIFFKIKKTTPLRRLMEAFAKRQGKEMDSLRFLYDGIRIQADQTPEDLDMEDNDIIEAHREQIGC
modifications: biotin maleimide on the C-terminal Cys
notes: Conjugate of SpyTag003-Cys; also called biotinylated probe
In the case of B4, the binding result in test [4] is “binds”.

B5: SpyTag003-DNP (His6-SpyTag003-SUMO-Cys dinitrophenol conjugate) (other)
chain: MGSSHHHHHHSSGLVPRGSRGVPHIVMVDAYKRYKGSGESGMSDSEVNQEAKPEVKPEVKPETHINLKVSDGSSEIFFKIKKTTPLRRLMEAFAKRQGKEMDSLRFLYDGIRIQADQTPEDLDMEDNDIIEAHREQIGC
modifications: 2,4-dinitrophenyl-maleimide on the C-terminal Cys
notes: Conjugate of SpyTag003-Cys; also called SpyTag003 2,4-dinitrolphenol conjugate; dinitrophenyl probe
Take B5: the binding result in [5] is “binds”.

B6: SpyTag003^D117A-AF594 (His6-SpyTag003^D117A-SUMO-Cys Alexa Fluor 594 conjugate) (other)
chain: MGSSHHHHHHSSGLVPRGSRGVPHIVMVAAYKRYKGSGESGMSDSEVNQEAKPEVKPEVKPETHINLKVSDGSSEIFFKIKKTTPLRRLMEAFAKRQGKEMDSLRFLYDGIRIQADQTPEDLDMEDNDIIEAHREQIGC
modifications: Alexa Fluor 594 C5 maleimide on the C-terminal Cys
B6: in test [6], the binding result is “no binding (tested: 100 nM)”.
As to B7, the binding result in test [7] is reported as “binds”.

B8: reconstituted SpyCatcher003 with K31E, spliced from SpyN-αHER2(K31E) and SpyC-αEGFR (other)
chain: DYKDDDDKDLGKKLLEAARAGQDDEVRILMANGADVNAKDEYGLTPLYLATAHGHLEIVEVLLKNGADVNAVDAIGFTPLHLAAFIGHLEIAEVLLKHGADVNAQDKFGKTAFDISIGNGNEDLAEILQKLNGSTSGSVTTLSGLSGEQGPSGDMTTEEDSATHIKFSERDEDGRELAGATMELRDSSGKTISTWISDGHVKDFYLYPGKYSFVETAAPDGYEVATPIEFTVNEDGQVTVDGEATEGDAHTGSTSGSDLGKKLLEAARAGQDDEVRILMANGADVNADDTWGWTPLHLAAYQGHLEIVEVLLKNGADVNAYDYIGWTPLHLAADGHLEIVEVLLKNGADVNASDYIGDTPLHLAAHNGHLEIVEVLLKHGADVNAQDKFGKTAFDISIDNGNEDLAEILQKLNEQKLISEEDL
notes: K31 is counted on SpyCatcher003; ranges derived as for m26; also called defective POI; defective output
Turning to B8, in test [8], the binding result was “no binding (tested: 100 nM)”.

B9: αHER2-AF594 DARPin (αHER2-HA-Cys Alexa Fluor 594 conjugate) (designed binder)
chain: DLGKKLLEAARAGQDDEVRILMANGADVNAKDEYGLTPLYLATAHGHLEIVEVLLKNGADVNAVDAIGFTPLHLAAFIGHLEIAEVLLKHGADVNAQDKFGKTAFDISIGNGNEDLAEILQKLNGGYPYDVPDYAGGSC
modifications: Alexa Fluor 594 C5 maleimide on the C-terminal Cys
notes: His6-SUMO tag cut off with Ulp1; range derived by counting; also called targeting DARPin labeled with AF594
For the molecule B9, in [9], the binding result is given as “binds”.

B10: αEpCAM-AF594 DARPin (αEpCAM-HA-Cys Alexa Fluor 594 conjugate) (designed binder)
chain: DLGKKLLEAARAGQDDEVRILVANGADVNAYFGTTPLHLAAAHGRLEIVEVLLKNGADVNAQDVWGITPLHLAAYNGHLEIVEVLLKYGADVNAHDTRGWTPLHLAAINGHLEIVEVLLKNVADVNAQDRSGKTPFDLAIDNGNEDIAEVLQKAAKLNGGYPYDVPDYAGGSC
modifications: Alexa Fluor 594 C5 maleimide on the C-terminal Cys
notes: as for B9
With B10, the binding result in test [10] was “binds”.
